Numbering of substitutions follows the chain as printed. Names may count otherwise.

The results in this text go back to patent publication US20240084042A1 (Genentech, published 2024).

Sequences and labels used below:
T1: cynomolgus monkey KLK5 (cynomolgus monkey, UniProt Q9Y337 67-293 (human entry))
T1 construct: also called cyno KLK5
T1 chain: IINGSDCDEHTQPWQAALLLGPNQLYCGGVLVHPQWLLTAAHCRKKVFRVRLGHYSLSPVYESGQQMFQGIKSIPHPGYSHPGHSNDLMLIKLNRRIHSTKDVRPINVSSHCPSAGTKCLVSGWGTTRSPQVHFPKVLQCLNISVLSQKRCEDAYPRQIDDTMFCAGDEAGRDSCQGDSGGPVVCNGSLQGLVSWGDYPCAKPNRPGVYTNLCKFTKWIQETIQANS

T2: human KLK5 (human, UniProt Q9Y337 67-293)
T2 sequence: T1 chain with E9M, G21R, G29A, I71V, H98R, S99P, R128K, E169K, K202R

B1: OA.hu.10C5.L5H28.WT (antibody, V domains shown)
VH: EVQLVESGGGLVQPGGSLRLSCAASGFSLSSYGVTWVRQAPGKGLEWIGYITSNYGVSYYASWAKSRSTISRDTSKNTVYLQMGSLRAEDMAVYYCARENPDYGYAYDAWGQGTTVTVSS
VL: AIRMTQSPSSFSASTGDRVTITCQASESISNELSWYQQKPGKAPKLLIYYASTLASGVPSRFSGSGSGTDFTLTISSLQPEDFATYYCAQGFGSSGVENVFGGGTKVEIK
notes: One-armed (OA) monovalent anti-KLK5 antibody with a human IgG1 Fc, without Q38E/Q39K; constant regions and dummy Fc chain not specified
B2: OA.hu.10C5.N53V.S34K.F92Y (antibody, V domains shown)
VH: B1 VH with Q39K, N54V
VL: B1 VL with S34K, Q38E, F92Y
notes: One-armed (OA) monovalent anti-KLK5 antibody with a human IgG1 Fc, with Q38E/Q39K; constant regions and dummy Fc chain not specified
B3: OA.hu.10C5.N53V.S34K.F92Y.S95F (antibody, V domains shown)
VH: B1 VH with Q39K, N54V
VL: B1 VL with S34K, Q38E, F92Y, S95F
notes: as for B2
B4: OA.hu.10C5.N53V.S95F (antibody, V domains shown)
VH: B1 VH with Q39K, N54V
VL: B1 VL with Q38E, S95F
notes: as for B2
B5: OA.hu.10C5.N53V (antibody, V domains shown)
VH: B1 VH with N54V
VL: B1 VL
notes: as for B1
B6: OA.hu.10C5.N53V.F92Y (antibody, V domains shown)
VH: B1 VH with Q39K, N54V
VL: B1 VL with Q38E, F92Y
notes: as for B2
B7: OA.hu.10C5.N53V.F92Y.S95F (antibody, V domains shown)
VH: B1 VH with Q39K, N54V
VL: B1 VL with Q38E, F92Y, S95F
notes: as for B2
B8: OA.hu.10C5.N53V.S34K.S95F (antibody, V domains shown)
VH: B1 VH with Q39K, N54V
VL: B1 VL with S34K, Q38E, S95F
notes: as for B2
B9: OA.hu.10C5.N53V.S34K (antibody, V domains shown)
VH: B1 VH with Q39K, N54V
VL: B1 VL with S34K, Q38E
notes: as for B2
B10: hu.14H11c.L2H11-hIgG1 (antibody, V domains shown)
VH: EQQLVESGGGLIQPGGSLRLSCAASGFSFSSSYYMSWVRQAPGKGLEWVSSIYAGSSGAPYYAGWAKGRFTISRDNSKNTLYLQMNSLRAEDTAVYYCAREGFAETGGYGYAAYFNLWGPGTLVTVSS
VL: DIQMTQSPSSLSASVGDRVTITCLASEDIASSVSWYQQKPGKAPKLLIYGASNLESGVPSRFSGSGSGTDYTLTISSLQPEDFATYYCLGGYSYSSTGTAFGGGTKVEIK
notes: Humanized anti-KLK7 antibody, human IgG1
B11: One-armed hu.14H11c.L2H11-hIgG1 knob-in-hole (antibody)
heavy: not shown
VL: B10 VL with Q38K
chain: DKTHTCPPCPAPELLGGPSVFLFPPKPKDTLMISRTPEVTCVVVDVSHEDPEVKFNWYVDGVEVHNAKTKPREEQYGSTYRVVSVLTVLHQDWLNGKEYKCKVSNKALPAPIEKTISKAKGQPREPQVYTLPPSREEMTKNQVSLSCAVKGFYPSDIAVEWESNGQPENNYKTTPPVLDSDGSFFLVSKLTVDKSRWQQGNVFSCSVMHEALHNHYTQKSLSLSPGK
notes: Monovalent one-armed format
B12: chimeric rb.14H11c-hIgG1 (antibody, V domains shown)
VH: QSLEESGGDLVKPGASLTLTCTASGFSFSSSYYMSWVRQAPGKGLEWIASIYAGSSGAPYYAGWAKGRFTISKTSSTAVTLQMSSLTAADTATYFCAREGFAETGGYGYAAYFNLWGPGTLVTVSS
VL: AIEMTQSPPSLSASVGETVRIRCLASEDIASSVSWYQQKPGKPPTLLIYGASNLESGVPPRFTGSGSGTDYTLTIGGVQAEDAATYYCLGGYSYSSTGTAFGAGTKVEIK
notes: Rabbit variable domains (14H11 with C35a to S in VH) on human IgG1; also called Chimeric 14H11c
B13: hu10C5VY (antibody, V domains shown)
VH: B1 VH with N54V
VL: B1 VL with F92Y

Chain of human KLK7 (SEQ ID NO: 4 plus a C-terminal FLAG tag) (P49862 30-253): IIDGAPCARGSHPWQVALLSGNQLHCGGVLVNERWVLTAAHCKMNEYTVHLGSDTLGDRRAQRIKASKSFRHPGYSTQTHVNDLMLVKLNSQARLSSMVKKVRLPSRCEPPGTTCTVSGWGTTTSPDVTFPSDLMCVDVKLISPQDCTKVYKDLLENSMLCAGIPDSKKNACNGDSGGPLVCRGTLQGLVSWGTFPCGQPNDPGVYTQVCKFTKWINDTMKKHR
Chain of cyano KLK7 (SEQ ID NO: 6 plus a C-terminal FLAG tag) (P49862 other isoform, or with tags, fused parts or gaps): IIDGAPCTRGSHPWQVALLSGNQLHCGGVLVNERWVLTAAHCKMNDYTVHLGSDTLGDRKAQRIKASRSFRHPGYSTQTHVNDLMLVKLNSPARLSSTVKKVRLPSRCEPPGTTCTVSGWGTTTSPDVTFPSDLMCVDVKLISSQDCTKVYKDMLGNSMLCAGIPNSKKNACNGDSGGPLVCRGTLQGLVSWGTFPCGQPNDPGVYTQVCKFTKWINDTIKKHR

In the first assay the target is T1, cynomolgus monkey KLK5. The assay is described as follows: SPR, one-armed monovalent antibody.
For B1, the Kd (usually the concentration at which binding is half-saturated) worked out at 371 pM; the koff (as a rule, a measure of how fast the partners let go of each other) turned out to be 0.00424 s⁻¹; the kon – broadly, the rate constant with which the complex forms – turned out to be 1.14e+07 M⁻¹ s⁻¹.
For the molecule B2, the Kd amounted to 5.22 pM, the koff turned out to be 3.08e-05 s⁻¹ and the kon came to 5.9e+06 M⁻¹ s⁻¹.
B3: binding was characterised by a dissociation constant (Kd) of 2.65 pM, the koff amounted to 2.81e-05 s⁻¹ and the kon worked out at 1.06e+07 M⁻¹ s⁻¹.
Turning to B4, the equilibrium dissociation constant (Kd) is 7.44 pM, the koff turned out to be 0.0001 s⁻¹ and the kon was 1.35e+07 M⁻¹ s⁻¹.
Taken in the same sequence, the figures for B5 were 35.5 pM, 0.00052 s⁻¹ and 1.46e+07 M⁻¹ s⁻¹.
B6 showed a dissociation constant Kd of 8.85 pM, a koff of 0.000161 s⁻¹ and a kon of 1.82e+07 M⁻¹ s⁻¹.
In the same order, the values of B7 are 3.76 pM, 5.72e-05 s⁻¹ and 1.52e+07 M⁻¹ s⁻¹.
In the case of B8, the affinity, expressed as Kd, was 3.03 pM; the koff was determined as 2.86e-05 s⁻¹; the kon was determined as 9.41e+06 M⁻¹ s⁻¹.
On to B9, for which the affinity, expressed as Kd, was 16.2 pM; the koff worked out at 8.88e-05 s⁻¹; the kon is 5.48e+06 M⁻¹ s⁻¹.

A further assay deals with T3, human KLK7 (human, UniProt P49862 30-253).
T3 construct: Antigen injected in SPR; also called hu KLK7; huKLK7
T3 sequence (P49862 30-253): as the sequence (P49862 30-253) above
The assay is described as follows: SPR BIAcore 8K, antibody on protein A chip, 37 C. The method, then:
The binding affinity of the humanized antibodies was determined by BIAcore™ 8K SPR system. For kinetics measurements, antibodies were captured on research grade protein A chip (GE Healthcare) to achieve approximately 300 RU. Ten-fold serial dilutions of human KLK7 were injected in HBS-P buffer at 37° C. with a flow rate of 100 μL/min. Association rates (ka) and dissociation rates (kd) were calculated using a 1:1 Langmuir binding model (BIAcore Insight Evaluation Software version 2.0). The equilibrium dissociation constant (KD) was calculated as the ratio kd/ka.
Take B10: the Kd amounted to 0.356 pM, the koff was 1.22e-05 s⁻¹ and the kon was found to be 3.43e+07 M⁻¹ s⁻¹.
B11 registered a Kd of 0.894 pM, a koff of 2.52e-05 s⁻¹ and a kon of 2.82e+07 M⁻¹ s⁻¹.
Turning to B12, the Kd was under 1 pM, the koff is under 1e-06 s⁻¹ and the kon was determined as 2.16e+07 M⁻¹ s⁻¹.

A further assay addresses cyano KLK7 (SEQ ID NO: 6 plus a C-terminal FLAG tag) (cynomolgus monkey, UniProt P49862 30-253 (human entry)). The experiment in a line: cell-based or functional assay.
B10: the “IC50, KLK7 direct functional assay (Mca-RPKPVE-Nval-WRK(Dnp)), bivalency corrected” value (“IC50, KLK7 direct functional assay” below) was 290 pM.
For B13, the “IC50, KLK7 direct functional assay” value was over 10000 pM.

The target of another assay is T1, cynomolgus monkey KLK5. The experiment in a line: cell-based or functional assay.
B10: the “IC50, KLK5 direct functional assay (Boc-Val-Pro-Arg-AMC), bivalency corrected” value (“IC50, KLK5 direct functional assay” for short) is over 10000 pM.
Still for that read-out and setting: the result for B13 reads 560 pM.

The next assay concerns the target human KLK7 (SEQ ID NO: 4 plus a C-terminal FLAG tag) (human, UniProt P49862 30-253). The experiment in a line: cell-based or functional assay.
Take B10: the “IC50, KLK7 direct functional assay” value was determined as 290 pM.
Consider B13, for which the “IC50, KLK7 direct functional assay” value was over 10000 pM.

Another assay has as its target T2, human KLK5. The experiment in a line: cell-based or functional assay.
B10: the “IC50, KLK5 direct functional assay” value was over 10000 pM.
In the case of B13, the “IC50, KLK5 direct functional assay” value came to 460 pM.

A further assay deals with T2, human KLK5. The assay is described as follows: SPR, one-armed monovalent antibody. On the technique in general: SPR reads the build-up and loss of mass on a sensor chip optically.
Regarding B1, the Kd came out at 102 pM, the koff worked out at 0.00128 s⁻¹ and the kon was 1.25e+07 M⁻¹ s⁻¹.
As for B2, the Kd was under 0.334 pM, the koff is under 1e-06 s⁻¹ and the kon turned out to be 3e+06 M⁻¹ s⁻¹.
With B3, the Kd came to 0.367 pM, the koff was 1.88e-06 s⁻¹ and the kon amounted to 5.13e+06 M⁻¹ s⁻¹.
Regarding B4, binding was characterised by a dissociation constant (Kd) of 2.59 pM, the koff worked out at 1.51e-05 s⁻¹ and the on-rate (kon) was 5.82e+06 M⁻¹ s⁻¹.
Molecule B5 had a Kd of 13.5 pM, a koff of 9.23e-05 s⁻¹ and an association rate constant (kon) of 6.84e+06 M⁻¹ s⁻¹.
In the same order, the values of B6 are 3.82 pM, 2.45e-05 s⁻¹ and 6.41e+06 M⁻¹ s⁻¹.
In the same order, the values of B7 are 0.853 pM, 8.65e-06 s⁻¹ and 1.01e+07 M⁻¹ s⁻¹.
As for B8, the Kd was under 0.235 pM, the koff was under 1e-06 s⁻¹ and the kon came out at 4.25e+06 M⁻¹ s⁻¹.
For the molecule B9, the Kd was 2.89 pM, the koff worked out at 9.88e-06 s⁻¹ and the kon came out at 3.42e+06 M⁻¹ s⁻¹.
